Test results reported in the supplement of paper PMC9876800.

System: peptide library, one residue held at a place counted from the S/T acceptor
Assay: relative phosphorylation of the sub-library (ratio to the mean residue at this position); higher = residue favoured
Conditions: human
In short: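 Relative sub-library phosphorylation is a ratio to the mean residue at the same position. Purified recombinant kinases were incubated under kinase-specific conditions with biotinylated degenerate peptide sub-libraries, each fixing one residue at one position around a central Ser/Thr, using 50 μM peptide and 50 μM ATP spiked with γ-32P-ATP for 90 min. Spots captured on streptavidin membranes were phosphorimaged and quantified by densitometry.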

AKT2, construct: Full length, sequence (P31751 whole entry, looked up): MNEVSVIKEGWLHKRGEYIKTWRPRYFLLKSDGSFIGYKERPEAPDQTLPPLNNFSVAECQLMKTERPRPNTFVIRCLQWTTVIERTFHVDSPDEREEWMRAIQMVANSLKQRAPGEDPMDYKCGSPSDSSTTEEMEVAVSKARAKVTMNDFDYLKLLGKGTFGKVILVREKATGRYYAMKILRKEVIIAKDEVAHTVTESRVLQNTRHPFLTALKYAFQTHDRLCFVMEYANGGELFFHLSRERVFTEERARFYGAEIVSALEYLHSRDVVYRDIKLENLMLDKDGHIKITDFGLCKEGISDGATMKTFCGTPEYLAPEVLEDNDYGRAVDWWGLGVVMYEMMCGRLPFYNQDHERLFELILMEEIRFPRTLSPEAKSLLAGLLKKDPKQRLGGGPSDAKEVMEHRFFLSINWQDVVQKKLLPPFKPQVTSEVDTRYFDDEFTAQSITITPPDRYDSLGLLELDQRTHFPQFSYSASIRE
CLK2, construct: aa137-498, sequence (P49760 137-498, looked up): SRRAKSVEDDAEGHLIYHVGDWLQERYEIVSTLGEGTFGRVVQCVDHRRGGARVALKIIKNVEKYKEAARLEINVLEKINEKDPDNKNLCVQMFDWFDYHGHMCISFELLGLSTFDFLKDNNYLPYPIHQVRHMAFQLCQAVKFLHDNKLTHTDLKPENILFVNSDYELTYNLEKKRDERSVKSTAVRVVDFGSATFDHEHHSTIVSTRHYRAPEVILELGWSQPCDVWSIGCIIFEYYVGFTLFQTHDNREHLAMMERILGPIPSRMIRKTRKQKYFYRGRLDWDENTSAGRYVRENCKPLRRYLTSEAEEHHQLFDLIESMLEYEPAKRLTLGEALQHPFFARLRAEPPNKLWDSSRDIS
RPS6KA2, construct: Full length, sequence (Q15349 whole entry, looked up): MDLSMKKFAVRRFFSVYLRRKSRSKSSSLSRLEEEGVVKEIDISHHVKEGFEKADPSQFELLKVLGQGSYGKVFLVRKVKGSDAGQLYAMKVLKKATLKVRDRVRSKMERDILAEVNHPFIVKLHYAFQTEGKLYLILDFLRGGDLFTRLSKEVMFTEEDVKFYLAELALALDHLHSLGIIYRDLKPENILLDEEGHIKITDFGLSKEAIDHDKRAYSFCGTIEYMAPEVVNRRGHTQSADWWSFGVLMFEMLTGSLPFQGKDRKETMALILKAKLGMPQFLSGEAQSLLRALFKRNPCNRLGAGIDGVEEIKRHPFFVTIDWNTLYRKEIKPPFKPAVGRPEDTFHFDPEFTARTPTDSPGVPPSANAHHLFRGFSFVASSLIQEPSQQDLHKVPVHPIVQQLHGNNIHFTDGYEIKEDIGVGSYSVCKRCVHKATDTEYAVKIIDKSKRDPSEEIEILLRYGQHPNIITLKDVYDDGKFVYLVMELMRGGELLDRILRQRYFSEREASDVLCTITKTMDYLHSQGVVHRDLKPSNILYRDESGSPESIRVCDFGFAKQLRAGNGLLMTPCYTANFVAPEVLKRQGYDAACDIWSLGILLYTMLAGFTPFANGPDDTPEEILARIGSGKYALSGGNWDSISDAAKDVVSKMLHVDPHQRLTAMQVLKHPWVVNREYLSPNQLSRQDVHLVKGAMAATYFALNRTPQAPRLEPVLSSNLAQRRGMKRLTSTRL
BRAF, construct: aa444-721, sequence (P15056 444-721, looked up): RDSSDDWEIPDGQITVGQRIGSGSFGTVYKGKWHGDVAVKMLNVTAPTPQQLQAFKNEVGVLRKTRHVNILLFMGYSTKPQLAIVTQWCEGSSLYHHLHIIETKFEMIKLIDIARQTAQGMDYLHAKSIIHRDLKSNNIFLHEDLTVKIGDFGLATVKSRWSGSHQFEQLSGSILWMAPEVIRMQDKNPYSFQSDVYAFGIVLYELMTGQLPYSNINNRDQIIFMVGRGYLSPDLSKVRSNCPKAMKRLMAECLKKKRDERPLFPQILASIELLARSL

RPS6KA2, construct: Full length (from UniProt Q15349)
relative phosphorylation
Conditions	at +1	at +2	at +3	at +4	at -1	at -2	at -3	at -4	at -5
A fixed	0.795	1.22	1.14	1.18	0.925	0.766	0.741	1.41	1.13
D fixed	0.457	0.669	0.976	0.77	0.569	0.763	0.455	0.572	0.435
E fixed	0.806	0.601	0.792	0.661	0.505	0.589	0.562	0.639	0.417
F fixed	1.32	0.708	0.99	0.844	0.752	0.54	0.373	0.851	0.915
G fixed	0.658	1.24	1.21	1.22	1.21	0.914	0.583	1.12	1.1
H fixed	1.31	1.66	1.19	1.32	1.18	1.26	0.672	1.1	1.11
I fixed	1.22	0.994	0.855	0.88	0.384	0.502	0.308	0.657	0.72
K fixed	0.972	1.04	1.03	1.22	1.5	2.21	1.47	1.58	2
L fixed	0.925	0.616	1.04	0.839	0.916	1.05	0.311	0.801	0.862
M fixed	1.09	0.742	0.912	0.887	1.12	0.761	0.449	0.916	0.715
N fixed	0.769	0.781	0.706	0.68	1.16	0.697	0.434	0.743	0.755
P fixed	0.338	0.794	1.04	1.27	1.58	0.467	0.632	0.984	0.865
Q fixed	0.925	0.566	0.717	0.916	0.861	0.879	0.603	0.956	0.702
R fixed	0.998	1.82	1.09	0.886	1.6	4.34	8.11	2.03	3.49
V fixed	1.75	1.11	0.92	0.819	0.683	0.35	0.365	0.786	0.713
W fixed	1.05	0.973	1.17	1.44	0.793	0.409	0.443	0.954	0.171
Y fixed	1.61	1.47	1.23	1.16	1.26	0.503	0.49	0.894	0.903
pThr fixed	1	0.781	1.22	1.03	0.307	0.308	0.269	0.637	0.391
pTyr fixed	1.55	1.05	1.25	0.999	0.657	0.368	0.555	0.636	0.526

BRAF, construct: aa444-721 (from UniProt P15056)
relative phosphorylation
Conditions	at +1	at +2	at +3	at +4	at -1	at -2	at -3	at -4	at -5
A fixed	0.66	0.762	0.791	0.965	1.06	1.07	1.09	0.86	1.06
D fixed	0.675	1.38	0.941	1.09	1.92	0.748	0.994	1.52	1.48
E fixed	1.3	0.94	0.898	0.966	1.36	1	1.01	1.21	1.18
F fixed	1.44	0.67	1.06	0.762	0.539	0.983	0.935	0.684	0.7
G fixed	0.592	0.644	0.953	1.15	1.05	0.572	0.752	0.953	0.991
H fixed	0.864	1.49	0.97	1.09	1.78	1.26	0.902	0.908	1.11
I fixed	1.95	1.09	1.1	0.733	0.422	1.64	0.712	0.488	0.701
K fixed	0.533	0.749	0.714	1.11	0.775	0.686	1.34	0.743	1.32
L fixed	1.22	0.773	1.25	0.842	0.609	1.05	1.51	0.596	0.762
M fixed	1.26	1.23	1.22	0.826	1.23	0.931	1.27	0.629	0.897
N fixed	0.849	1.5	1.13	1.24	1.77	0.932	0.861	0.905	1.14
P fixed	0.377	0.631	0.805	1.57	0.337	0.499	0.666	0.945	1.15
Q fixed	0.956	1.51	0.995	1	1.14	0.892	0.929	0.765	0.889
R fixed	0.673	0.848	0.902	1.08	1.17	0.839	1.46	0.629	1.06
V fixed	1.76	1.2	0.935	0.661	0.504	1.55	0.707	0.546	0.687
W fixed	0.769	0.802	1.44	1.1	0.589	1.09	1.13	3.93	1.01
Y fixed	1.12	0.776	0.898	0.813	0.775	1.25	0.725	0.69	0.859
pThr fixed	1.08	0.723	0.835	0.85	0.577	0.992	0.807	0.776	0.945
pTyr fixed	0.912	0.736	0.945	0.792	1.13	1.58	0.734	0.655	1

CLK2, construct: aa137-498 (from UniProt P49760)
relative phosphorylation
Conditions	at +1	at +2	at +3	at +4	at -1	at -2	at -3	at -4	at -5
A fixed	0.537	1.38	0.558	0.879	1.16	1.94	0.571	1.2	1.14
D fixed	0.278	1.66	0.658	2.06	0.653	0.869	0.537	0.818	0.937
E fixed	1.31	2.38	0.614	2.16	0.846	1.79	0.471	0.964	0.865
F fixed	0.258	0.524	0.357	0.734	0.316	0.239	0.223	0.547	0.929
G fixed	0.82	1.31	0.908	0.989	1.78	1.51	0.615	1.42	1.23
H fixed	0.56	0.949	0.851	0.93	0.812	0.538	0.627	0.906	1.05
I fixed	0.388	0.352	0.246	0.491	0.194	0.159	0.176	0.441	0.412
K fixed	0.663	0.989	2.22	1.03	2.09	1.06	2.11	1.82	2.18
L fixed	0.433	0.565	0.396	0.645	0.416	0.266	0.209	0.485	0.478
M fixed	0.872	0.633	0.332	0.764	0.614	0.328	0.277	0.707	0.54
N fixed	0.464	0.968	0.95	1.18	1.07	0.522	0.473	0.897	1.05
P fixed	7.13	1.76	2.02	0.754	2.01	0.616	0.523	1.29	0.976
Q fixed	1.05	1.02	0.772	1.28	1.28	0.824	0.64	1.07	0.879
R fixed	0.767	1.08	5.17	1.12	2.29	5.66	8.88	2.84	2.51
V fixed	0.804	0.483	0.322	0.695	0.465	0.2	0.222	0.521	0.604
W fixed	0.296	0.468	0.305	0.626	0.467	0.219	0.219	0.491	0.607
Y fixed	0.367	0.468	0.314	0.668	0.543	0.266	0.23	0.582	0.614
pThr fixed	1.28	5.19	0.962	4.17	0.539	0.556	0.521	0.958	1
pTyr fixed	1.47	1.44	1.32	1.97	2.09	0.473	0.485	1.08	1.12

AKT2, construct: Full length (from UniProt P31751)
relative phosphorylation
Conditions	at +1	at +2	at +3	at +4	at -1	at -2	at -3	at -4	at -5
A fixed	0.789	1.29	1.06	0.923	0.951	0.988	0.523	1.15	1.09
D fixed	0.487	0.644	0.589	0.615	0.663	0.303	0.213	0.571	0.519
E fixed	0.448	0.575	0.584	0.595	0.457	0.304	0.231	0.647	0.536
F fixed	1.78	0.673	0.86	0.681	0.795	0.446	0.288	0.7	0.931
G fixed	0.854	1.36	1.27	1.23	1.16	0.615	0.351	1.19	1.05
H fixed	0.947	1.76	1.39	1.15	1.28	0.822	0.546	1.03	1.04
I fixed	1.14	0.734	0.617	0.687	0.43	0.438	0.274	0.661	0.711
K fixed	1.02	1.33	1.79	1.96	1.36	2.83	1.91	1.98	1.67
L fixed	1.11	0.872	0.859	0.736	0.772	0.784	0.29	0.797	0.838
M fixed	1.35	0.8	0.735	0.814	0.984	0.488	0.291	0.888	0.872
N fixed	1.1	1.23	0.919	1.06	1.67	0.547	0.304	0.914	0.807
P fixed	0.722	0.925	1.02	1.64	1.12	0.385	0.34	0.972	1.02
Q fixed	1.19	0.881	0.964	1.11	1.12	0.657	0.48	0.986	0.841
R fixed	1.12	1.41	1.82	1.68	1.61	6.03	10.1	2.35	2.51
V fixed	1.01	0.92	0.743	0.64	0.523	0.486	0.275	0.701	0.736
W fixed	0.972	0.723	0.888	0.705	0.737	0.437	0.294	0.674	0.907
Y fixed	0.971	0.878	0.887	0.765	1.38	0.441	0.311	0.803	0.927
pThr fixed	0.772	1.1	0.808	0.932	0.441	0.482	0.346	0.752	0.776
pTyr fixed	0.884	1.13	1.01	0.71	0.83	0.425	0.32	0.641	0.809
